Source: patent publication US9046519

Tests used:
[1] = target: TSHR Arg255 to Asp (human) (UniProt P16473); assay: cell-based or functional assay
[2] = target: human thyrotropin receptor (TSHR), wild type, full length (human) (UniProt P16473); assay: cell-based or functional assay

Cyclic AMP produced (fmol/cell well), hMAb TSHR1 IgG 1 ng/mL (fmol/cell well) [1]: 940 | Cyclic AMP produced (fmol/cell well), hMAb TSHR1 IgG 10 ng/mL (fmol/cell well) [1]: 3160 | Cyclic AMP produced (fmol/cell well), hMAb TSHR1 IgG 100 ng/mL (fmol/cell well) [1]: 5700 | Cyclic AMP produced (fmol/cell well), hMAb TSHR1 IgG 1 µg/mL (fmol/cell well) [1]: 5030 | Mutated/Wild type (%), hMAb TSHR1 IgG 1 ng/mL [1]: 19% | Mutated/Wild type (%), hMAb TSHR1 IgG 10 ng/mL [1]: 19% | Mutated/Wild type (%), hMAb TSHR1 IgG 100 ng/mL [1]: 37% | Cyclic AMP produced (fmol/cell well), hMAb TSHR1 IgG 1 ng/mL (fmol/cell well) [2]: 4860 | Cyclic AMP produced (fmol/cell well), hMAb TSHR1 IgG 10 ng/mL (fmol/cell well) [2]: 16200 | Cyclic AMP produced (fmol/cell well), hMAb TSHR1 IgG 100 ng/mL (fmol/cell well) [2]: 15400 | Cyclic AMP produced (fmol/cell well), hMAb TSHR1 IgG 1 µg/mL (fmol/cell well) [2]: 16300
Substance: hMAb TSHR1 IgG (antibody)
